This test deals with T1, Recombinant human VEGFR2-Fc (human, UniProt P35968 20-764).
T1 construct: VEGF receptor-2 (VEGFR2, KDR), human; Probably the extracellular domain fused to an IgG Fc; In the functional rows this id stands for the whole VEGFR2 on HUVECs or PAE/KDR cells; also called VEGF receptor-2; KDR; source: bought: BioLegend
In words: SPR; BIAcore, 20 °C; VEGFR2-Fc (50 µg/mL in 10 mM sodium acetate, pH 4.5) coupled to an EDC/NHS-activated CM5 chip; anosmin-1, its mutant or VEGF-A injected in PBS with 0.35 M NaCl at 30 µL/min; affinity calculated from the on- and off-rates. The note with it: both partners purified.

This passage reports Kd, koff and kon results from publication PMC6957483, “Anosmin-1 activates vascular endothelial growth factor receptor and its related signaling pathway for olfactory bulb angiogenesis” (Scientific Reports, 2020).

T1 sequence (P35968 20-764): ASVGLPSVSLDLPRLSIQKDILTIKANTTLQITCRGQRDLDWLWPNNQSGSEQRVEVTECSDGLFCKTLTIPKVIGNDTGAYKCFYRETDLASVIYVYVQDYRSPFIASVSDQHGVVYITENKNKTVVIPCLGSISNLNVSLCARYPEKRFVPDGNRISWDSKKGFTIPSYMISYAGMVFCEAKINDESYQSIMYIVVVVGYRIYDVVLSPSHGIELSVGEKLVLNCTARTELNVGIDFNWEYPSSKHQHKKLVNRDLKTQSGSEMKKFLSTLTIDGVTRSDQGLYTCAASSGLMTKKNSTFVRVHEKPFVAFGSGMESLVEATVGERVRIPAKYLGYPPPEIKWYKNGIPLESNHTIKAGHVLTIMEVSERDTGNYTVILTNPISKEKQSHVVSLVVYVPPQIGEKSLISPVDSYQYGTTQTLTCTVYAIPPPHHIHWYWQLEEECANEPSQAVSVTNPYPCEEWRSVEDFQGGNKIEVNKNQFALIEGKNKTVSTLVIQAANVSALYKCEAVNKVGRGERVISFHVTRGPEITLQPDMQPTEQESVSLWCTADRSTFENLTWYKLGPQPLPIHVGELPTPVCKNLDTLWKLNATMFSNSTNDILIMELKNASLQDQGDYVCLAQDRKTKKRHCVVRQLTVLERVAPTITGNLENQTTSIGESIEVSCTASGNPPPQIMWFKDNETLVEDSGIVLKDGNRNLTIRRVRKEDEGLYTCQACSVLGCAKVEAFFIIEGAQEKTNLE

B1: Recombinant human anosmin-1 Δ2–4 deletion mutant (domain or fragment)
chain: AGPGAAAARRLDESLSAGSVQRARCASRCLSLQITRISAFFQHFQNNGSLVWCQNHKQCSKCLEPCKESGDLRKHQCQSFCEPLFPKKSYECLTSCEFLKYILLVKQGDCPAPEKASGFAAACVESCEVDNECSGVKKCCSNGCGHTCQVPKTLYKGVPLKPRKELRFTELQSGQLEVKWSSKFNISIEPVIYVVQRRWNYGIHPSEDDATHWQTVAQTTDERVQLTDIRPSRWYQFRVAAVNVHGTRGFTAPSKHFRSSKDP
modifications: secreted from 293T cells (pSecTag2; vector signal and His tag left out), likely N-glycosylated; cysteine box + WAP + first FnIII kept, FnIII 2-4 and His-rich region deleted; C-terminal limit taken …
In general, Kd refers to the equilibrium constant for the complex coming apart. As a reminder, the koff is the first-order rate constant of dissociation. For orientation: kon means the second-order rate constant of association. On to B1, for which the Kd was 1400 nM, the koff is 0.046 s⁻¹ and the kon is 34000 M⁻¹ s⁻¹.

B2: Recombinant human anosmin-1 wild-type (natural protein, UniProt P23352 25-680, looked up)
chain: AGPGAAAARRLDESLSAGSVQRARCASRCLSLQITRISAFFQHFQNNGSLVWCQNHKQCSKCLEPCKESGDLRKHQCQSFCEPLFPKKSYECLTSCEFLKYILLVKQGDCPAPEKASGFAAACVESCEVDNECSGVKKCCSNGCGHTCQVPKTLYKGVPLKPRKELRFTELQSGQLEVKWSSKFNISIEPVIYVVQRRWNYGIHPSEDDATHWQTVAQTTDERVQLTDIRPSRWYQFRVAAVNVHGTRGFTAPSKHFRSSKDPSAPPAPANLRLANSTVNSDGSVTVTIVWDLPEEPDIPVHHYKVFWSWMVSSKSLVPTKKKRRKTTDGFQNSVILEKLQPDCDYVVELQAITYWGQTRLKSAKVSLHFTSTHATNNKEQLVKTRKGGIQTQLPFQRRRPTRPLEVGAPFYQDGQLQVKVYWKKTEDPTVNRYHVRWFPEACAHNRTTGSEASSGMTHENYIILQDLSFSCKYKVTVQPIRPKSHSKAEAVFFTTPPCSALKGKSHKPVGCLGEAGHVLSKVLAKPENLSASFIVQDVNITGHFSWKMAKANLYQPMTGFQVTWAEVTTESRQNSLPNSIISQSQILPSDHYVLTVPNLRPSTLYRLEVQVLTPGGEGPATIKTFRTPELPPSSAHRSHLKHRHPHHYKPSPERY
notes: anosmin-1, human, product of the ANOS1 gene; also called anosmin-1 WT; WT; source: 293 T cells (pSecTag2 vector), conditioned media, purified (HisTrap HP column, PD-10 column)
Regarding B2, the dissociation constant (Kd) was 32 nM, the koff was 0.0011 s⁻¹ and the kon was 35000 M⁻¹ s⁻¹.
